# Measurements published in the supplement of paper PMC12042874.
# ± gives the uncertainty stated by the source.
# Assay: amyloid nucleation score (Sup35N fusion, yeast selection) (log enrichment); library NNK3; higher = more nucleation; inactive = no reads after selection
# In short: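 Psi-negative yeast expressed Sup35N fused to peptides of 20 random codons. They were induced 24 hours with 100 μM copper sulfate, grown 7 days at 30°C without adenine and uracil, and their plasmid inserts from input and output were Illumina-sequenced. The nucleation score is the DiMSum log enrichment of output over input reads, centred on the mode score of non-aggregating sequences. Sequences with under 100 input reads were excluded.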
row,Substance,amyloid nucleation score
1,AGQNQVRDGKVIVKACSCMS,inactive
2,NNYSPLFRTTAGYSSHFTRQ,inactive
3,FRIIQVVRYDMMGTRLDMYQ,0.938 ± 0.19
4,CVSGDCVMIMFYLFSPVAVV,inactive
5,FLACSDVVYSDN,inactive
6,GVYMQSLLYRCFVFYNYKLD,inactive
7,WVRCVRQGVYLRYVLLLCEI,inactive
8,LRLVKYNAGIHYGSVGPQFL,inactive
9,KVVVKEIQILVGSAGSKRMS,0.638 ± 0.25
10,TLVPVCGGSAGLVSSRKAAT,inactive
11,MHANLLGVQSVLLDRVEVMW,inactive
12,IFFSIVSWKDAGCSEAINCQ,inactive
13,TRSCDRYRALYSLLFTTGSM,inactive
14,IVLYRKVRPCTWAE,inactive
15,LLWLKL,inactive
16,GLNLISISFRAGFAGMHRRA,1.82 ± 0.099
17,KQRVWR,inactive
18,SNIRYRNFRSGFFIQWLHTG,inactive
19,VSVFMKLVRFET,1.17 ± 0.091
20,SSYLI,inactive
21,YVSPKSIVLIPCYTMRKTRY,inactive
22,FFNYIIMEIHFFALLSHRKH,inactive
23,QRAMYCKSLMSF,inactive

row,Substance,amyloid nucleation score
1,LLKLRIQIKVWTS,inactive
2,TFFIIIGYVLASGGALGLCR,inactive
3,VRYVNGSKCTFNLS,inactive
4,VEYQNI,inactive
5,ATSEYWILLVFYLCDIAQVS,inactive
6,DVMKICMKLSLHICTVHISS,inactive
7,RQCGVVIKFLMISTLISSIA,inactive
8,RRFVNVLGMHC,0.693 ± 0.16
9,FSKVTFHSCGIQCERQVKNN,inactive
10,IWKGCSACFGKD,-0.222 ± 1.2
11,AVMVRRYFVDWCRQEVTFHV,0.088 ± 0.62
12,CSFSISSSGVLWRGKERPIG,1.05 ± 0.18
13,SWRPAICPLLVMKL,inactive
14,YNMCLRDRVLFVIIDVRIFW,0.035 ± 0.35
15,FATVYELAYYQGTYCKVRCS,0.148 ± 0.78
16,WHVEIIVHNMSFSILKNVGR,1.65 ± 0.1
17,YQVSI,inactive
18,DTTFMQYVAIYVLVSKLFIE,inactive
19,LFSICINICLY,1.79 ± 0.092
20,ALWFIHYGAG,0.98 ± 0.24
21,EKCWFQVCCTRSLGKSGIIC,inactive
22,LFVYSWKRFDGNWNKLSWNR,inactive
23,LWDALDKDSESVIDMGQNEG,inactive

row,Substance,amyloid nucleation score
1,NQSGALVG,inactive
2,RVYKSV,inactive
3,MRRSMAVAMNRSVLYDEC,0.581 ± 0.16
4,FHNVGLI,1.77 ± 0.093
5,CRVSGMDICLWSMMCDSVGS,inactive
6,SLVYACSSEL,inactive
7,SEASQRLLYTMVWTAHTQVM,inactive
8,CSVLDKEVFGGTSQDSDSYL,inactive
9,WKPCS,inactive
10,GSGCVIYIL,inactive
11,DILFTSIS,0.257 ± 0.41
12,FMYSGAVSDVRLNSSGDSLG,-0.516 ± 0.96
13,KICVPSCSCTIFLDLFRY,2.56 ± 0.08
14,RMMCARIFRVSWLSSCLEGG,inactive
15,TGLVMNKLHLMCDMYGIISL,inactive
16,YIFVMLEHVG,inactive
17,SQACNHLVADRSTIGELSRM,inactive
18,NLGTATLHLSYYMDPLTT,inactive
19,LCEEYYSINTWFRYVNVDIL,inactive
20,QTVKHIKICGVCWVSMLMF,2.07 ± 0.086
21,LIGDNRTGEVALYRFGSRMG,inactive
22,SDCSIHKSGYVTDTACDVFD,inactive
23,VKTKPFHLRYR,inactive

row,Substance,amyloid nucleation score
1,YRANINRVLVFQLN,1.44 ± 0.086
2,RLLIMSGNNGLLGPSYNAIV,-0.01 ± 0.78
3,ILQTLQDVRVRGMDISTASL,inactive
4,NYDERCV,-0.363 ± 0.98
5,SVLLISVEYVAYEFLSHSVR,2.05 ± 0.097
6,ACNDVIHVASSRDLMGAHPR,-0.396 ± 0.87
7,KLFSYRRRPNINCLG,inactive
8,YSLCACSYYVNVVNNRVVSV,1.39 ± 0.073
9,QRFPKCI,inactive
10,SIDDVDFSGTAKMSSSQRCT,inactive
11,NMYSCNSGGHKQLCLKVGDL,inactive
12,CCSSRMYLEGCPSLRLMEHI,inactive
13,SGGYDQSQALNRLVGWRVYC,-0.301 ± 1
14,TLMGLESVSVYFSMGFLSVY,inactive
15,EQSLFES,inactive
16,NCDIPFFTRSEIVFLFVDFI,inactive
17,MHAMNVMAGVRLALVYVRSN,inactive
18,NYGLLQFISIWSNILVHSNV,inactive
19,TRMEICCKGYKGNVPKFAVY,inactive
20,CELAKLVRNDSFRKDNQGYS,inactive
21,WKYGKLISPFVQDVVSLSIK,inactive
22,YIIRENLW,inactive
23,SGIQVRGQTSIVLLNF,2.41 ± 0.052

row,Substance,amyloid nucleation score
1,FCVTQWRAQRASHLYFMPGE,inactive
2,AFSFMLACWQRRIAQALAYL,inactive
3,EYLPEQPVCIVMSYTPKFPC,inactive
4,GCKMVGRICSDIICSVGVME,0.988 ± 0.16
5,EIGFYCPSGAGGHRKDRVLR,inactive
6,FSIAMFQANSGYASR,1.25 ± 0.14
7,ICYTYNGPRSSVGVVLLGQ,inactive
8,NSSDVRQVLAIIRCGVV,inactive
9,AIVFGGNAQKSHTHDTGAMG,inactive
10,WSLSYHRKMIFGDTCVTYIG,inactive
11,NVFFIRNNQTTGRLKFWCQV,0.958 ± 0.12
12,VNYRSNIFNHYCSFSRN,0.934 ± 0.11
13,TPRKVVDNGGLIDFKVYRLL,inactive
14,GRHRFYSAIKQVQR,inactive
15,SFLYYRFVLVGIFLRVAGRF,inactive
16,SPCIVLVQKLCGLGCRFVSV,1.68 ± 0.11
17,FCACLERQTSLNF,inactive
18,QTNLGPFVPSYGCFLCWMEG,inactive
19,SVERVLLRTVASVGGDVDVN,inactive
20,QWIVDFCNCTWEVVRVLRFC,inactive
21,GYYPLYVTFNSMCEFNIQLQ,3.11 ± 0.051
22,VECHPCSHFDLHNGRIRDNR,inactive
23,SFGYLSAPRFIVGKVSHLGC,inactive

row,Substance,amyloid nucleation score
1,SNDFEVLVLQLLYFSIWCY,1.48 ± 0.091
2,CCRVRTS,inactive
3,TPSVRRGVMGVSPELCAMVG,inactive
4,RRNHMEFWTCSKYPRGLCGI,inactive
5,LVPVLNGVLSKLRSFNFHSG,inactive
6,PWMHLYRHAMFISAHLRYSC,inactive
7,QFMNKIIMCLGSF,-0.263 ± 0.58
8,NKYYVRSSFELVIVYA,0.142 ± 0.32
9,NCRRRKCVTGGGRS,1.16 ± 0.17
10,DAYNVYMMSSRPAHYQGHYL,inactive
11,SLRFISSLWV,inactive
12,TRILVRTGYHLLFLEG,inactive
13,QWSNCDMASAYYAYRNLNAD,inactive
14,YLRWLLFYS,inactive
15,FIILKYGLYM,0.507 ± 0.14
16,RLFMDLYVFTTRVFNIFQFV,inactive
17,SYTSFSHSPCTVLMKTWPPK,inactive
18,VRPLVDYMMQNM,inactive
19,FYKLRHQVRTKISERYLPDS,inactive
20,SGGLRLLGKSLLWTAVCTNT,inactive
21,LCITIVSRWVVGVFHQMFYT,-0.219 ± 0.68
22,LCSYGVGWD,inactive
23,WFVYALMNRLEYSKAYFPML,inactive

row,Substance,amyloid nucleation score
1,LKIRKFLTFKFSSALIIVVC,inactive
2,TLWAEYTNLSEKEIDDYIDL,inactive
3,ILTHIVWLFVRLSCMNWNWL,inactive
4,MVSNNGFIRSLVENPTPIQD,inactive
5,AVNYMYSQSMKIVRDCFVIV,inactive
6,KPCHASVET,inactive
7,KYFRNLTVRKTKWE,inactive
8,HRREMSHCKREPWKSINFYW,inactive
9,TPYQYFFRNCWKMSYRRAKI,inactive
10,YVFDHDIGQ,inactive
11,FRYEILTI,0.912 ± 0.12
12,VLTFNKGFFGC,1.26 ± 0.11
13,NFIIWWVLDISVERIRINEV,inactive
14,NPFRGFLTIQCRPILRFPDK,inactive
15,SSPRPLCPDLRLVDIIQILI,inactive
16,YYYYDRCMRPVHSGKGVKLW,inactive
17,ERPSLVEW,inactive
18,LQHFVR,inactive
19,DILIREFDYLTSTHLDDKIR,inactive
20,PVPLAMYFYVALIYFDWW,inactive
21,CCMVNRGTRQVSRWIVPNWR,inactive
